By stoichiometry N is commonly meant a count of units in the complex or per binding partner.

This data set deals with the molecule itself. Nature of the data set: cryo-EM structure; single particle cryo-EM of the purified transporter in mixed DDM + CHS micelles (20 mM Tris-HCl pH 7.4, 300 mM NaCl); ASCT2_(C467R) with 1 mM DL-TBOA and without inhibitor, ASCT2wt without substrate; C3 symmetry imposed, classifications without symmetry also done.

B1: human Alanine Serine Cysteine Transporter 2 with the C467R mutation (ASCT2_(C467R)) (natural protein)
chain: MVADPPRDSKGLAAAEPTANGGLALASIEDQGAAAGGYCGSRDQVRRCLRANLLVLLTVVAVVAGVALGLGVSGAGGALALGPERLSAFVFPGELLLRLLRMIILPLVVCSLIGGAASLDPGALGRLGAWALLFFLVTTLLASALGVGLALALQPGAASAAINASVGAAGSAENAPSKEVLDSFLDLARNIFPSNLVSAAFRSYSTTYEERNITGTRVKVPVGQEVEGMNILGLVVFAIVFGVALRKLGPEGELLIRFFNSFNEATMVLVSWIMWYAPVGIMFLVAGKIVEMEDVGLLFARLGKYILCCLLGHAIHGLLVLPLIYFLFTRKNPYRFLWGIVTPLATAFGTSSSSATLPLMMKCVEENNGVAKHISRFILPIGATVNMDGAALFQCVAAVFIAQLSQQSLDFVKIITILVTATASSVGAAGIPAGGVLTLAIILEAVNLPVDHISLILAVDWLVDRSRTVLNVEGDALGAGLLQNYVDRTESRSTEPELIQVKSELPLDPLPVPTEEGNPLLKHYRGPAGDATVASEKESVM
notes: human ASCT2 (SLC1A5), codon optimised gene on the pPICZ-A plasmid, with the single point mutation C467R; residues 43-159 and 177-489 were modelled in the map; Homotrimer (172 kDa) in DDM + CHS micelles; the tag and the limits are not described here; also called SLC1A5 C467R; source: Pichia pastoris X-33, purified (DDM/CHS solubilisation, Ni2+-Sepharose, Superdex 200 SEC)
On to B1, for which the “stoichiometry N” value was determined as 3.

B2: human Alanine Serine Cysteine Transporter 2, wild type (ASCT2wt) (natural protein)
chain: MVADPPRDSKGLAAAEPTANGGLALASIEDQGAAAGGYCGSRDQVRRCLRANLLVLLTVVAVVAGVALGLGVSGAGGALALGPERLSAFVFPGELLLRLLRMIILPLVVCSLIGGAASLDPGALGRLGAWALLFFLVTTLLASALGVGLALALQPGAASAAINASVGAAGSAENAPSKEVLDSFLDLARNIFPSNLVSAAFRSYSTTYEERNITGTRVKVPVGQEVEGMNILGLVVFAIVFGVALRKLGPEGELLIRFFNSFNEATMVLVSWIMWYAPVGIMFLVAGKIVEMEDVGLLFARLGKYILCCLLGHAIHGLLVLPLIYFLFTRKNPYRFLWGIVTPLATAFGTSSSSATLPLMMKCVEENNGVAKHISRFILPIGATVNMDGAALFQCVAAVFIAQLSQQSLDFVKIITILVTATASSVGAAGIPAGGVLTLAIILEAVNLPVDHISLILAVDWLVDRSCTVLNVEGDALGAGLLQNYVDRTESRSTEPELIQVKSELPLDPLPVPTEEGNPLLKHYRGPAGDATVASEKESVM
notes: human ASCT2 (SLC1A5), codon optimised gene on the pPICZ-A plasmid; Only a map (6.98 Å, C3 imposed) was deposited, no model; also called SLC1A5
For B2, the binding result was “binds”.

The record behind these values is paper PMC6668440, “A one-gate elevator mechanism for the human neutral amino acid transporter ASCT2” (Nature Communications, 2019).
